Here are results for one substance from paper PMC4864350, “Fluorogenic Substrates for In Situ Monitoring of Caspase-3 Activity in Live Cells” (PLoS ONE, 2016).

In this test the target is T1, caspase-3 (Homo sapiens, UniProt P42574).
T1 construct: purchased R&D systems, USA
T1 sequence (P42574 29-175 limits assumed): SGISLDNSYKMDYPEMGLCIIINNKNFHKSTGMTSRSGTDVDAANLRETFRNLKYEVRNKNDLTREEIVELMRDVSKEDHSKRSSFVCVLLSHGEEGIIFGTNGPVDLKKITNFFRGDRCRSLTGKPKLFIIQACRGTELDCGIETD
T1 sequence (P42574 176-277 limits assumed): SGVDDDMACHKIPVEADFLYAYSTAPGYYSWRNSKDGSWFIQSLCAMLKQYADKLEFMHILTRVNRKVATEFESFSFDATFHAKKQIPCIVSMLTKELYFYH
Nature of the test: Kinetic assay of fluorogenic substrates with caspase-3. To be noted: substrate range 0.1–8 μM, enzyme 20 nM (1–9) or 15 nM (10–14), n = 3. The format is biochemical. As for the experimental part:
The ability of […] (bearing MR as the quencher of choice) to act as s substrate for caspase-3, as well as caspase-7, was investigated by determining the catalytic efficiency (kcat/KM) for each substrate with both enzymes (Table 2).
Caspase-3 or caspase-7 (R&D systems, USA) was added to 100 μL of caspase assay buffer with substrates 1–14 at concentrations from 0.1 μM to 8 μM in a 96-well plate (n = 3) to give final enzyme concentration of 20 nM (1–9) or 15 nM (10–14). Fluorescence (λEx/Em 485/528 nm) was recorded on a Biotek Synergy HT Multi-Mode Microplate Reader every 2 min. Control samples had the same composition but no enzyme. The rate (μM/min) was calibrated using a 5(6)-carboxyfluorescein conversion factor (0.0055 μM/RFU) and data plotted against time (min). For initial cleavage rate (0–5 min), plots were fitted using linear regression analysis and the Michaelis-Menten data generated using GraphPad Prism 5.

*: point of attachment. MethylRed = CN(C)c1ccc(/N=N/c2ccccc2C(=O)*)cc1; FAM = 5(6)-carboxyfluorescein; peptoid = not defined here; Ahx = NCCCCCC(=O)O

A word on the Km: it is the concentration of substrate that gives half-maximal velocity. Consider “substrate 27: FAM-Ahx-Asp-Leu-Pro-Asp-Lys(MR)-Ahx, conjugated to the cell penetrating peptoid at the C-terminus ({FAM-Ahx}-DLPDK(MethylRed)-{Ahx-peptoid}; reading uncertain; also: printed as FAM-Ahx-Asp-Leu-Pro-Asp-Lys(MR)-Ahx)”, for which the “Kcat, Caspase-3” value amounted to 0.035 ± 0.013 s⁻¹. Further, the Km (fluorescence λEx/Em 485/528 nm, initial rate 0–5 min, Michaelis-Menten) turned out to be 1.1 ± 0.3 µM.
